Assay results from article PMC12154015, “A Novel Approach for the Activity Assessment of L-Asparaginase Formulations When Dealing with Complex Biological Samples” (International Journal of Molecular Sciences, 2025).

Assays:
Test in all cases: purified protein
[1] = substrate: NC(=O)C[C@H](N)C(=O)O; format: biochemical, Rhodospirillum rubrum; conditions: PBS 0.01 M, pH 7.4, 37 °C, [S]0 = 10 mM
[2] = substrate: Cc1cc(=O)oc2cc(NC(=O)C[C@H](N)C(=O)O)ccc12; format: biochemical, Rhodospirillum rubrum; conditions: 37 °C, pH 7.4, table heading says in bovine serum, [S]0 = 1 mM
[3] = substrate: Cc1cc(=O)oc2cc(NC(=O)C[C@H](N)C(=O)O)ccc12; format: biochemical, Escherichia coli; conditions: 37 °C, pH 7.4, table heading says in bovine serum, [S]0 = 1 mM
[4] = substrate: NC(=O)C[C@H](N)C(=O)O; conditions: PBS 0.01 M, pH 7.4, 37 °C, [S]0 = 10 mM

Protein	Km [1] [µM]	Km [2] [µM]	Km [3] [µM]	Km [4] [µM]
RrA; Rhodospirillum rubrum type I L-ASNase (Rhodospirillum rubrum ATCC 11170) (protein, recombinant, native (unconjugated); 172 residues, monomer 18 kDa; tetramer/dimer) MAVSPSPLRIFTAGGTIDKDYRLEENGLVVGDPFVAEVLKTARLAGAVSIVALSRKDSLDFTEADREAIGRAVGQAVEDHILLTHGTDTMVETARYLGGLPELAGKTVVLSGAMVPGRVGGSDAAFNIGFACAAALMLAPGVYIAMHGKVFDPAKTRKNRGLGRFEPIDDQE	4000 ± 300	4000 ± 300	–	–
EcA; E. coli L-ASNase (Veropharm) (Escherichia coli K-12) (protein, commercial native enzyme (Veropharm), unconjugated; monomer 37 kDa, 348 residues as printed (precursor length); tetramer) LPNITILATGGTIAGGGDSATKSNYTVGKVGVENLVNAVPQLKDIANVKGEQVVNIGSQDMNDNVWLTLAKKINTDCDKTDGFVITHGTDTMEETAYFLDLTVKCDKPVVMVGAMRPSTSMSADGPFNLYNAVVTAADKASANRGVLVVMNDTVLDGRDVTKTNTTDVATFKSVNYGPLGYIHNGKIDYQRTPARKHTSDTPFDVSKLNELPKVGIVYNYANASDLPAKALVDAGYDGIVSAGVGNGNLYKSVFDTLATAAKTGTAVVRSSRVPTGATTQDAEVDDAKYGFVASGTLNPQKARVLLQLALTQTKDPQQIQQIFNQY	–	–	20 ± 3	20 ± 3
